Experimental data reported in PMC12447488, “Targeting Both Monomer and Oligomer with Fibrinogen Efficiently Suppresses Amyloid Fibril Formation and Cell Toxicity of Amyloid β 1‑42” (ACS Chemical Neuroscience, 2025).

Legend:
Conditions in all cases: both partners purified
Amyloid β 1-42 oligomer [1] = biological target: T1, Amyloid β 1-42 oligomer (UniProt P05067 672-713); assay: far-Western, overlay or dot blot + AUC; number of binding sites on bFg worked out from the concentrations of Aβ42 species (18 μM monomer, about 0.17 μM oligomer) and of bFg at which the interaction was seen
T1 construct: numbers count on: the Aβ peptide; granular particles of 5.0 ± 0.9 nm height in AFM; read out with antibody A11 in the dot blot; also called Aβ42 oligomer; Aβ oligomers; source: formed from bought Aβ42 (Peptide Institute, Inc.) at 20 μM during 1 h at 37 °C in 50 mM phosphate/200 mM NaCl (pH 7.4); copies: 12

Amyloid β 1-42 monomer [2] = biological target: T2, Amyloid β 1-42 monomer (UniProt P05067 672-713); assay: as above
T2 construct: printed molecular weight 4512 g/mol; numbers count on: the Aβ peptide; read out with antibody 4G8 in the dot blot; also called Aβ42; Aβ42 monomer; source: bought: Peptide Institute, Inc. (Japan), used without further purification

Amyloid β 1-42 oligomer [3] = biological target: T1, Amyloid β 1-42 oligomer; assay: far-Western, overlay or dot blot; Aβ42 20 μM incubated with bFg or hFg (0.03, 0.3, 3 μM) for 1 h at 37 °C in 50 mM phosphate/200 mM NaCl pH 7.4, then dotted; loss of the spot intensity of antibody 4G8 (monomer) or A11 (oligomer) taken as binding by steric hindrance; apparent Kd from fit or simulation with eq S6
Amyloid β 1-42 monomer [4] = biological target: T2, Amyloid β 1-42 monomer; assay: as above

B1: bovine fibrinogen (complex)
chain 1: EDGSDPPSGDFLTEGGGVRGPRLVERQQSACKETGWPFCSDEDWNTKCPSGCRMKGLIDEVDQDFTSRINKLRDSLFNYQKNSKDSNTLTKNIVELMRGDFAKANNNDNTFKQISEDLRSRIEILRRKVIEQVQRIKVLQKNVRDQLVDMKRLEVDIDIKIRSCKGSCSRALEHKVDLEDYKNQQKQLEQVIAINLLPSRDIQYLPLIKMSTITGPVPREFKSQLQEAPLEWKALLEMQQTKMVLETFGGDGHARGDSVSQGTGLAPGSPRKPGTSSIGNVNPGSYGPGSSGTWNPGRPEPGSAGTWNPGRPEPGSAGTWNPGRPEPGSAGTWNPGRPEPGSAGTWNPGRPEPGSAGTWNTGSSGSSSFRPDSSGHGNIRPSSPDWGTFREEGSVSSGTKQEFHTGKLVTTKGDKELLIDNEKVTSGHTTTTRRSCSKVITKTVTNADGRTETTKEVVKSEDGSDCGDADFDWHHTFPSRGNLDDFFHRDKDDFFTRSSHEFDGRTGLAPEFAALGESGSSSSKTSTHSKQFVSSSTTVNRGGSAIESKHFKMEDEAESLEDLGFKGAHGTQKGHTKARPARGIHTSPLGEPSLTP
chain 2: QFPTDYDEGQDDRPKVGLGARGHRPYDKKKEEAPSLRPVPPPISGGGYRARPATATVGQKKVERKPPDADGCLHADPDLGVLCPTGCKLQDTLVRQERPIRKSIEDLRNTVDSVSRTSSSTFQYITLLKNMWKGRQNQVQDNENVVNEYSSHLEKHQLYIDETVKNNIPTKLRVLRSILENLRSKIQKLESDVSTQMEYCRTPCTVTCNIPVVSGKECEKIIRNEGETSEMYLIQPEDSSKPYRVYCDMKTEKGGWTVIQNRQDGSVDFGRKWDPYKQGFGNIATNAEGKKYCGVPGEYWLGNDRISQLTNMGPTKLLIEMEDWKGDKVTALYEGFTVQNEANKYQLSVSKYKGTAGNALIEGASQLVGENRTMTIHNSMFFSTYDRDNDGWKTTDPRKQCSKEDGGGWWYNRCHAANPNGRYYWGGAYTWDMAKHGTDDGVVWMNWQGSWYSMKKMSMKIRPYFPEQ
chain 3: YVATRDNCCILDERFGSYCPTTCGIADFLNNYQTSVDKDLRTLEGILYQVENKTSEARELVKAIQISYNPDQPSKPNNIESATKNSKSMMEEIMKYETLISTHESTIRFLQEVYNSNSQKIVNLRDKVVQLEANCQEPCQDTVKIHDVTGRDCQDVANKGAKESGLYFIRPLKAKQFLVYCEIDGSGNGWTVFQKRLDGSLDFKKNWIQYKEGFGHLSPTGTGNTEFWLGNEKIHLISTQSSIPYVLRIQLEDWNGRTSTADYASFKVTGENDKYRLTYAYFIGGDAGDAFDGYDFGDDSSDKFFTSHNGMQFSTWDSDNDKYDGNCAEQVGIGWWMNKCHAGHLNGVYYQGGTYSKTSTPNGYDNGIIWATWKSRWYSMKKTTMKIIPLNRLAIGEGQQHQLGGAKQVGVEHHVEIEYD
notes: fibrinogen Aα chain, bovine; fibrinogen Bβ chain, bovine; fibrinogen γ chain, bovine; About 340 kDa, six polypeptide chains (two Aα, two Bβ, two γ); also called bFg; source: bought: Wako Pure Chemical Industries (from plasma), purified via size-exclusion chromatography (monomer fractions); copies: 2 + 2 + 2
With B1 the “stoichiometry N” value (Amyloid β 1-42 oligomer [1]) was ≥ 2, the “stoichiometry N” value (Amyloid β 1-42 monomer [2]) was ≤ 6 and the Kd (Amyloid β 1-42 oligomer [3]) was 200 ± 50 nM. For the same binder, the Kd (Amyloid β 1-42 monomer [4]) was ~1000 nM.

B2: human fibrinogen (complex)
chain 1: ADSGEGDFLAEGGGVRGPRVVERHQSACKDSDWPFCSDEDWNYKCPSGCRMKGLIDEVNQDFTNRINKLKNSLFEYQKNNKDSHSLTTNIMEILRGDFSSANNRDNTYNRVSEDLRSRIEVLKRKVIEKVQHIQLLQKNVRAQLVDMKRLEVDIDIKIRSCRGSCSRALAREVDLKDYEDQQKQLEQVIAKDLLPSRDRQHLPLIKMKPVPDLVPGNFKSQLQKVPPEWKALTDMPQMRMELERPGGNEITRGGSTSYGTGSETESPRNPSSAGSWNSGSSGPGSTGNRNPGSSGTGGTATWKPGSSGPGSTGSWNSGSSGTGSTGNQNPGSPRPGSTGTWNPGSSERGSAGHWTSESSVSGSTGQWHSESGSFRPDSPGSGNARPNNPDWGTFEEVSGNVSPGTRREYHTEKLVTSKGDKELRTGKEKVTSGSTTTTRRSCSKTVTKTVIGPDGHKEVTKEVVTSEDGSDCPEAMDLGTLSGIGTLDGFRHRHPDEAAFFDTASTGKTFPGFFSPMLGEFVSETESRGSESGIFTNTKESSSHHPGIAEFPSRGKSSSYSKQFTSSTSYNRGDSTFESKSYKMADEAGSEADHEGTHSTKRGHAKSRPV
chain 2: QGVNDNEEGFFSARGHRPLDKKREEAPSLRPAPPPISGGGYRARPAKAAATQKKVERKAPDAGGCLHADPDLGVLCPTGCQLQEALLQQERPIRNSVDELNNNVEAVSQTSSSSFQYMYLLKDLWQKRQKQVKDNENVVNEYSSELEKHQLYIDETVNSNIPTNLRVLRSILENLRSKIQKLESDVSAQMEYCRTPCTVSCNIPVVSGKECEEIIRKGGETSEMYLIQPDSSVKPYRVYCDMNTENGGWTVIQNRQDGSVDFGRKWDPYKQGFGNVATNTDGKNYCGLPGEYWLGNDKISQLTRMGPTELLIEMEDWKGDKVKAHYGGFTVQNEANKYQISVNKYRGTAGNALMDGASQLMGENRTMTIHNGMFFSTYDRDNDGWLTSDPRKQCSKEDGGGWWYNRCHAANPNGRYYWGGQYTWDMAKHGTDDGVVWMNWKGSWYSMRKMSMKIRPFFPQQ
chain 3: YVATRDNCCILDERFGSYCPTTCGIADFLSTYQTKVDKDLQSLEDILHQVENKTSEVKQLIKAIQLTYNPDESSKPNMIDAATLKSRKMLEEIMKYEASILTHDSSIRYLQEIYNSNNQKIVNLKEKVAQLEAQCQEPCKDTVQIHDITGKDCQDIANKGAKQSGLYFIKPLKANQQFLVYCEIDGSGNGWTVFQKRLDGSVDFKKNWIQYKEGFGHLSPTGTTEFWLGNEKIHLISTQSAIPYALRVELEDWNGRTSTADYAMFKVGPEADKYRLTYAYFAGGDAGDAFDGFDFGDDPSDKFFTSHNGMQFSTWDNDNDKFEGNCAEQDGSGWWMNKCHAGHLNGVYYQGGTYSKASTPNGYDNGIIWATWKTRWYSMKKTTMKIIPFNRLTIGEGQQHHLGGAKQAGDV
modifications: Natural plasma hexamer (AαBβγ)2, about 340 kDa, disulfide-linked and N-glycosylated, fibrinopeptides A and B retained. Aα is the 610-residue plasma form (the paper gives αC as 221-610); mature 1-610 =
With B2 the Kd (Amyloid β 1-42 oligomer [3]) was 1400 ± 200 nM and the Kd (Amyloid β 1-42 monomer [4]) was ≥ 100000 nM.
